Patent US7985889B2, “AtMIN7 mediated disease resistance to Pseudomonas syringae in Arabidopsis” (priority 2007, dated 2011)

Biological target: T1, AtMIN7-HA (Arabidopsis thaliana, UniProt F4IXW2, DEL212-213/INS429[…])
T1 construct: expressed in transfected cells; host or cells: Nicotiana benthamiana leaves, Agrobacterium tumefaciens C58C1 co-infiltration (pBI121-AtMIN or pBAR1-AtMIN)
Assay: Protein pull-down assay and immunoblot in N. benthamiana leaves
Format: binding
Conditions: transient co-expression in N. benthamiana leaves, Ni-NTA pull-down
Description: N. benthamiana plants were transiently transformed with HopM1 and AtMIN proteins. In brief, fully expanded N. benthamiana leaves were co-infiltrated with Agrobacterium tumefaciens C58 C1 (for an example of co-infiltration techniques, see, Hellens, et al. (2005) Plant Methods, 1:13; herein incorporated by reference) comprising plasmids and genes described herein (for example, see, Bechtold, et al. (1993) Comptes Rendus De L Academie Des Sciences Serie Iii-Sciences De La Vie-Life Sciences 316(10):1194-1199; herein incorporated by reference).
In brief: leaf disc fractions were homogenized in 1×SDS-polyacrylamide gel electrophoresis (PAGE) sample buffer, boiled for 5 min, and centrifuged for 2 minutes. Proteins in the supernatant were separated on SDS-PAGE gels and transferred to Immobilon-P membrane for immunoblotting procedures (Millipore Corp., Bedford, Mass.).
Protein pull-down analysis methods: N. benthamiana leaf discs were homogenized in lysis buffer (50 mM Tris-HCl pH=8.0, 250 mM NaCl, 10 mM β-mercaptoethanol, 1% Triton X100, 1 mM PMSF, plant protease inhibitor cocktail [Sigma Co.]). Total protein extracts were collected after centrifugation of the homogenate at 20,000-x g for 15 min at 4° C. to remove insoluble materials. […] AtMIN10-HA was detected using the HA epitope antibody.

T1 sequence (F4IXW2 with tags, fused parts or gaps DEL212-213/INS429[withheld]): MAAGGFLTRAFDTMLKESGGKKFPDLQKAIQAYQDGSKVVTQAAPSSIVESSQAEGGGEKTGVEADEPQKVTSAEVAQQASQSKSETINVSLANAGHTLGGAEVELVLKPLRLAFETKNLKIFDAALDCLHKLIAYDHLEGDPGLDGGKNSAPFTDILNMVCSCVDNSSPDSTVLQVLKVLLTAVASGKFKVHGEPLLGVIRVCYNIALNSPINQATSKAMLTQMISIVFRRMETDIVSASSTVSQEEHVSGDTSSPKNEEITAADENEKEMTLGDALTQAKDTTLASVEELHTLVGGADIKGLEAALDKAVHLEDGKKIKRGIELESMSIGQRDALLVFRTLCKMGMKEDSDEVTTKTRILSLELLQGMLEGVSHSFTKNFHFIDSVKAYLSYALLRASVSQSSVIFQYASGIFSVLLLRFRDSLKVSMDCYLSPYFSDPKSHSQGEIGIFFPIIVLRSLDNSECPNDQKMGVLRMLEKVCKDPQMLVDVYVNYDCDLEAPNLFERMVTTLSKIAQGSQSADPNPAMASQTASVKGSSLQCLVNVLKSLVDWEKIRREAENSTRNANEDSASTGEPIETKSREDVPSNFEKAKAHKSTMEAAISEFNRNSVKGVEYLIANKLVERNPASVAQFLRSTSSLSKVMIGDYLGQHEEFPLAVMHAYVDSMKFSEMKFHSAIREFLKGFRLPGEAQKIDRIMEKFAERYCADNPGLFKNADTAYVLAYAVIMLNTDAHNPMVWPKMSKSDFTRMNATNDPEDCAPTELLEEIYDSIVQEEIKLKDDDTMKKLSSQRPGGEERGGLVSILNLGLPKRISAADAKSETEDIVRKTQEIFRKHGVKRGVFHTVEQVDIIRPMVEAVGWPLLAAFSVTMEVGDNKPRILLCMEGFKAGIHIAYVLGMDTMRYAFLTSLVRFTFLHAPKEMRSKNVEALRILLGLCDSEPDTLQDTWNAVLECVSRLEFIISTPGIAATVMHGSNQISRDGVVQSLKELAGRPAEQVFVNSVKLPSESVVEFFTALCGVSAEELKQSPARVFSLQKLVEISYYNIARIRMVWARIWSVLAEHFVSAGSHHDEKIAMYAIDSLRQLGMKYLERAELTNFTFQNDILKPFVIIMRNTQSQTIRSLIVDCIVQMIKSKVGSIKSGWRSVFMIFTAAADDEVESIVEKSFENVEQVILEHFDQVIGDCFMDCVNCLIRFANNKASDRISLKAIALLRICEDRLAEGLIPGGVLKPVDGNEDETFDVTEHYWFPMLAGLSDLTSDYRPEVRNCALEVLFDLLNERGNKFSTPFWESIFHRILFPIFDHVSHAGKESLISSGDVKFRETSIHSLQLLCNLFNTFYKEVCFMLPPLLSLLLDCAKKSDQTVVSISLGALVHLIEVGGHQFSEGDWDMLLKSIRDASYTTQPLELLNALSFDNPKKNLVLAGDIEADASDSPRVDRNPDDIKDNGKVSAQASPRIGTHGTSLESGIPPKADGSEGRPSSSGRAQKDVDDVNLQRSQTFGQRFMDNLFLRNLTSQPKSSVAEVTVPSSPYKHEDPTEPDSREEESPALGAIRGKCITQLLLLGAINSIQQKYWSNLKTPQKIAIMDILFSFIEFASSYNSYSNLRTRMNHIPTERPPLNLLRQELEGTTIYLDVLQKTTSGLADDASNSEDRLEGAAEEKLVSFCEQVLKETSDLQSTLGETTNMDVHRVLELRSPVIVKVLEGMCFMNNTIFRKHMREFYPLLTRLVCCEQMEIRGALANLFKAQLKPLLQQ

B1: 6×His-HopM1301-712: 6×His-tagged C-terminal HopM1 fragment, amino acids 301-712 (protein)
chain: GPIVAAAVPQFLSSMTHLGYVRLSTSDKLRDTIPETSSDANMLKASIIGMVAGIAHETVNSVVKPMFQAALQKTGLNERLNMVPMKAVDTNTVIPDPFELKSEHGELVKKTPEEVAQDKAFVKSERALLNQKKVQGSSTHPVGELMAYSAFGGSQAVRQMLNDVHQINGQTLSARALASGFGGAVSASSQTLLQLKSNYVDPQGRKIPVFTPDRAESDLKKDLLKGMDLREPSVRTTFYSKALSGIQSSALTSALPPVTAQAEGASGTLSAGAILRNMALAATGSVSYLSTLYTNQSVTAEAKALKAAGMGGATPMLDRTETALNNIRHPNRESLPHTFQKSTLSGIPRVAENAYHMGRGALQLPTQMAVDTVRVVDEGVLNAVASAREALKQPTKDDDALRALEEGLLDPR
modifications: left off: small tags and cut ends
Question: How did the “physical interaction with AtMIN7-HA” value turn out when B1 was run?
Answer: no interaction
